# Test results taken from US20140363428A1 (Chugai, published 2014).
# Target: T1, soluble human FcRn (human, UniProt P55899 24-297; P61769 21-119)
# T1 construct: Heterodimer of alpha chain and beta2-microglobulin; also called hFcRn
# Assay: SPR (Biacore), pH 7.0
row,Kd,Binder
1,55 nM,F1586 (antibody) chain 1: QVQLQESGPGLVKPSETLSLTCAVSGHSISHDHAWSWVRQPPGEGLEWIGFISYSGITNYNPSLQGRVTISRDNSKNTLYLQMNSLRAEDTAVYYCARSLARTTAMDYWGEGTLVTVSSASTKGPSVFPLAPSSKSTSGGTAALGCLVKDYFPEPVTVSWNSGALTSGVHTFPAVLQSSGLYSLSSVVTVPSSSLGTQTYICNVNHKPSNTKVDKKVEPKSCDKTHTCPPCPAPELRGGPKVFLFPPKPKDTLYITLEPDVTCVVVDVSHEDPEVKFNWYVDGVEVHNAKTKPREEQYNSTYRVVSVLTVLHQDWLNGKEYKCKVSNKALPAPIEKTISKAKGQPREPQVYTLPPSRDELTKNQVSLTCLVKGFYPSDIAVEWESNGQPENNYKTTPPVLDSDGSFFLYSKLTVDKSRWQQGNVFSCSVMHEALDYHVTRKELSLSP chain 2: DIQMTQSPSSLSASVGDSVTITCQASTDISSHLNWYQQKPGKAPELLIYYGSHLLSGVPSRFSGSGSGTDFTFTISSLEAEDAATYYCGQGNRLPYTFGQGTKVEIERTVAAPSVFIFPPSDEQLKSGTASVVCLLNNFYPREAKVQWKVDNALQSGNSQESVTEQDSKDSTYSLSSTLTLSKADYEKHKVYACEVTHQGLSSPVTKSFNRGEC
2,51 nM,F1614 (antibody) chain 1: QVQLQESGPGLVKPSETLSLTCAVSGHSISHDHAWSWVRQPPGEGLEWIGFISYSGITNYNPSLQGRVTISRDNSKNTLYLQMNSLRAEDTAVYYCARSLARTTAMDYWGEGTLVTVSSASTKGPSVFPLAPSSKSTSGGTAALGCLVKDYFPEPVTVSWNSGALTSGVHTFPAVLQSSGLYSLSSVVTVPSSSLGTQTYICNVNHKPSNTKVDKKVEPKSCDKTHTCPPCPAPELRGGPKVFLFPPKPKDTLYITLEPDVTCVVVDVSHEDPEVKFNWYVDGVEVHNAKTKPREEQYNSTYRVVSVLTVLHQDWLNGKEYKCKVSNKALPAPIEKTISKAKGQPREPQVYTLPPSRDELTKNQVSLTCLVKGFYPSDIAVEWESNGQPENNYKTTPPVLDSDGSFFLYSKLTVDKSRWQQGNVFSCSVMHEALDYHVTRKDLSLSP chain 2: DIQMTQSPSSLSASVGDSVTITCQASTDISSHLNWYQQKPGKAPELLIYYGSHLLSGVPSRFSGSGSGTDFTFTISSLEAEDAATYYCGQGNRLPYTFGQGTKVEIERTVAAPSVFIFPPSDEQLKSGTASVVCLLNNFYPREAKVQWKVDNALQSGNSQESVTEQDSKDSTYSLSSTLTLSKADYEKHKVYACEVTHQGLSSPVTKSFNRGEC
3,49 nM,F1612 (antibody) chain 1: QVQLQESGPGLVKPSETLSLTCAVSGHSISHDHAWSWVRQPPGEGLEWIGFISYSGITNYNPSLQGRVTISRDNSKNTLYLQMNSLRAEDTAVYYCARSLARTTAMDYWGEGTLVTVSSASTKGPSVFPLAPSSKSTSGGTAALGCLVKDYFPEPVTVSWNSGALTSGVHTFPAVLQSSGLYSLSSVVTVPSSSLGTQTYICNVNHKPSNTKVDKKVEPKSCDKTHTCPPCPAPELRGGPKVFLFPPKPKDTLYITLEPDVTCVVVDVSHEDPEVKFNWYVDGVEVHNAKTKPREEQYNSTYRVVSVLTVLHQDWLNGKEYKCKVSNKALPAPIEKTISKAKGQPREPQVYTLPPSRDELTKNQVSLTCLVKGFYPSDIAVEWESNGQPENNYKTTPPVLDSDGSFFLYSKLTVDKSRWQQGNVFSCSVMHEALDYHVTKKDLSLSP chain 2: DIQMTQSPSSLSASVGDSVTITCQASTDISSHLNWYQQKPGKAPELLIYYGSHLLSGVPSRFSGSGSGTDFTFTISSLEAEDAATYYCGQGNRLPYTFGQGTKVEIERTVAAPSVFIFPPSDEQLKSGTASVVCLLNNFYPREAKVQWKVDNALQSGNSQESVTEQDSKDSTYSLSSTLTLSKADYEKHKVYACEVTHQGLSSPVTKSFNRGEC
4,60 nM,F1615 (antibody) chain 1: QVQLQESGPGLVKPSETLSLTCAVSGHSISHDHAWSWVRQPPGEGLEWIGFISYSGITNYNPSLQGRVTISRDNSKNTLYLQMNSLRAEDTAVYYCARSLARTTAMDYWGEGTLVTVSSASTKGPSVFPLAPSSKSTSGGTAALGCLVKDYFPEPVTVSWNSGALTSGVHTFPAVLQSSGLYSLSSVVTVPSSSLGTQTYICNVNHKPSNTKVDKKVEPKSCDKTHTCPPCPAPELRGGPKVFLFPPKPKDTLYITLEPIVTCVVVDVSHEDPEVKFNWYVDGVEVHNAKTKPREEQYNSTYRVVSVLTVLHQDWLNGKEYKCKVSNKALPAPIEKTISKAKGQPREPQVYTLPPSRDELTKNQVSLTCLVKGFYPSDIAVEWESNGQPENNYKTTPPVLDSDGSFFLYSKLTVDKSRWQQGNVFSCSVMHEALDYHVTRKDLSLSP chain 2: DIQMTQSPSSLSASVGDSVTITCQASTDISSHLNWYQQKPGKAPELLIYYGSHLLSGVPSRFSGSGSGTDFTFTISSLEAEDAATYYCGQGNRLPYTFGQGTKVEIERTVAAPSVFIFPPSDEQLKSGTASVVCLLNNFYPREAKVQWKVDNALQSGNSQESVTEQDSKDSTYSLSSTLTLSKADYEKHKVYACEVTHQGLSSPVTKSFNRGEC
5,55 nM,F1592 (antibody) chain 1: QVQLQESGPGLVKPSETLSLTCAVSGHSISHDHAWSWVRQPPGEGLEWIGFISYSGITNYNPSLQGRVTISRDNSKNTLYLQMNSLRAEDTAVYYCARSLARTTAMDYWGEGTLVTVSSASTKGPSVFPLAPSSKSTSGGTAALGCLVKDYFPEPVTVSWNSGALTSGVHTFPAVLQSSGLYSLSSVVTVPSSSLGTQTYICNVNHKPSNTKVDKKVEPKSCDKTHTCPPCPAPELRGGPKVFLFPPKPKDTLYITLEPIVTCVVVDVSHEDPEVKFNWYVDGVEVHNAKTKPREEQYNSTYRVVSVLTVLHQDWLNGKEYKCKVSNKALPAPIEKTISKAKGQPREPQVYTLPPSRDELTKNQVSLTCLVKGFYPSDIAVEWESNGQPENNYKTTPPVLDSDGSFFLYSKLTVDKSRWQQGNVFSCSVMHEALDYHVTRKELSLSP chain 2: DIQMTQSPSSLSASVGDSVTITCQASTDISSHLNWYQQKPGKAPELLIYYGSHLLSGVPSRFSGSGSGTDFTFTISSLEAEDAATYYCGQGNRLPYTFGQGTKVEIERTVAAPSVFIFPPSDEQLKSGTASVVCLLNNFYPREAKVQWKVDNALQSGNSQESVTEQDSKDSTYSLSSTLTLSKADYEKHKVYACEVTHQGLSSPVTKSFNRGEC
6,52 nM,F1613 (antibody) chain 1: QVQLQESGPGLVKPSETLSLTCAVSGHSISHDHAWSWVRQPPGEGLEWIGFISYSGITNYNPSLQGRVTISRDNSKNTLYLQMNSLRAEDTAVYYCARSLARTTAMDYWGEGTLVTVSSASTKGPSVFPLAPSSKSTSGGTAALGCLVKDYFPEPVTVSWNSGALTSGVHTFPAVLQSSGLYSLSSVVTVPSSSLGTQTYICNVNHKPSNTKVDKKVEPKSCDKTHTCPPCPAPELRGGPKVFLFPPKPKDTLYITLEPIVTCVVVDVSHEDPEVKFNWYVDGVEVHNAKTKPREEQYNSTYRVVSVLTVLHQDWLNGKEYKCKVSNKALPAPIEKTISKAKGQPREPQVYTLPPSRDELTKNQVSLTCLVKGFYPSDIAVEWESNGQPENNYKTTPPVLDSDGSFFLYSKLTVDKSRWQQGNVFSCSVMHEALDYHVTKKDLSLSP chain 2: DIQMTQSPSSLSASVGDSVTITCQASTDISSHLNWYQQKPGKAPELLIYYGSHLLSGVPSRFSGSGSGTDFTFTISSLEAEDAATYYCGQGNRLPYTFGQGTKVEIERTVAAPSVFIFPPSDEQLKSGTASVVCLLNNFYPREAKVQWKVDNALQSGNSQESVTEQDSKDSTYSLSSTLTLSKADYEKHKVYACEVTHQGLSSPVTKSFNRGEC
7,48 nM,F1567 (antibody) chain 1: QVQLQESGPGLVKPSETLSLTCAVSGHSISHDHAWSWVRQPPGEGLEWIGFISYSGITNYNPSLQGRVTISRDNSKNTLYLQMNSLRAEDTAVYYCARSLARTTAMDYWGEGTLVTVSSASTKGPSVFPLAPSSKSTSGGTAALGCLVKDYFPEPVTVSWNSGALTSGVHTFPAVLQSSGLYSLSSVVTVPSSSLGTQTYICNVNHKPSNTKVDKKVEPKSCDKTHTCPPCPAPELRGGPKVFLFPPKPKDTLYITREPEVTCVVVDVSHEDPEVKFNWYVDGVEVHNAKTKPREEQYNSTYRVVSVLTVLHQDWLNGKEYKCKVSNKALPAPIEKTISKAKGQPREPQVYTLPPSRDELTKNQVSLTCLVKGFYPSDIAVEWESNGQPENNYKTTPPVLDSDGSFFLYSKLTVDKSRWQQGNVFSCSVMHEALAYHVTRKELSLSP chain 2: DIQMTQSPSSLSASVGDSVTITCQASTDISSHLNWYQQKPGKAPELLIYYGSHLLSGVPSRFSGSGSGTDFTFTISSLEAEDAATYYCGQGNRLPYTFGQGTKVEIERTVAAPSVFIFPPSDEQLKSGTASVVCLLNNFYPREAKVQWKVDNALQSGNSQESVTEQDSKDSTYSLSSTLTLSKADYEKHKVYACEVTHQGLSSPVTKSFNRGEC
8,52 nM,F1611 (antibody) chain 1: QVQLQESGPGLVKPSETLSLTCAVSGHSISHDHAWSWVRQPPGEGLEWIGFISYSGITNYNPSLQGRVTISRDNSKNTLYLQMNSLRAEDTAVYYCARSLARTTAMDYWGEGTLVTVSSASTKGPSVFPLAPSSKSTSGGTAALGCLVKDYFPEPVTVSWNSGALTSGVHTFPAVLQSSGLYSLSSVVTVPSSSLGTQTYICNVNHKPSNTKVDKKVEPKSCDKTHTCPPCPAPELRGGPKVFLFPPKPKDTLYITLEPIVTCVVVDVSHEDPEVKFNWYVDGVEVHNAKTKPREEQYNSTYRVVSVLTVLHQDWLNGKEYKCKVSNKALPAPIEKTISKAKGQPREPQVYTLPPSRDELTKNQVSLTCLVKGFYPSDIAVEWESNGQPENNYKTTPPVLDSDGSFFLYSKLTVDKSRWQQGNVFSCSVMHEALDYHVTKKELSLSP chain 2: DIQMTQSPSSLSASVGDSVTITCQASTDISSHLNWYQQKPGKAPELLIYYGSHLLSGVPSRFSGSGSGTDFTFTISSLEAEDAATYYCGQGNRLPYTFGQGTKVEIERTVAAPSVFIFPPSDEQLKSGTASVVCLLNNFYPREAKVQWKVDNALQSGNSQESVTEQDSKDSTYSLSSTLTLSKADYEKHKVYACEVTHQGLSSPVTKSFNRGEC
9,48 nM,F1610 (antibody) chain 1: QVQLQESGPGLVKPSETLSLTCAVSGHSISHDHAWSWVRQPPGEGLEWIGFISYSGITNYNPSLQGRVTISRDNSKNTLYLQMNSLRAEDTAVYYCARSLARTTAMDYWGEGTLVTVSSASTKGPSVFPLAPSSKSTSGGTAALGCLVKDYFPEPVTVSWNSGALTSGVHTFPAVLQSSGLYSLSSVVTVPSSSLGTQTYICNVNHKPSNTKVDKKVEPKSCDKTHTCPPCPAPELRGGPKVFLFPPKPKDTLYITLEPDVTCVVVDVSHEDPEVKFNWYVDGVEVHNAKTKPREEQYNSTYRVVSVLTVLHQDWLNGKEYKCKVSNKALPAPIEKTISKAKGQPREPQVYTLPPSRDELTKNQVSLTCLVKGFYPSDIAVEWESNGQPENNYKTTPPVLDSDGSFFLYSKLTVDKSRWQQGNVFSCSVMHEALDYHVTKKELSLSP chain 2: DIQMTQSPSSLSASVGDSVTITCQASTDISSHLNWYQQKPGKAPELLIYYGSHLLSGVPSRFSGSGSGTDFTFTISSLEAEDAATYYCGQGNRLPYTFGQGTKVEIERTVAAPSVFIFPPSDEQLKSGTASVVCLLNNFYPREAKVQWKVDNALQSGNSQESVTEQDSKDSTYSLSSTLTLSKADYEKHKVYACEVTHQGLSSPVTKSFNRGEC
